± gives the uncertainty stated by the source.
Test: self-splicing fitness, log relative to wild type (ln ratio); higher = more splicing; Tetrahymena group I intron in knt gene, E. coli kanamycin selection, DiMSum; sequences stand for … in CUCUCU…GGAGGGAAAAGUUAUCAGGCAUGCACCUGGUAGCUAGUCUUUAAACCAAUAGAUUGCAUCGGUUUAAAAGGCAAGACCGUCAAAUUGCGGGAAAGGGGUCAACAGCCGUUCAGUACCAAGUCUCAGGGGAAACUUUGAGAUGGCCUUGCAAAGGGUAUGGUAAUAAGCUGACGGACAUGGUCCUAACCACGCAGCCAAGUCCUAAGUCAACAGAUCUUCUGUUGAUAUGGAUGCAGUUCACAGACUAAAUGUCGGUCGGGGAAGAUGUAUUCUUCUCAUAAGAUAUAGUCGGACCUCUCCUUAAUGGGAGCUAGCGGAUGAAGUGAUGCAACACUGGAGCCGCUGGGAACUAAUUUGUAUGCGAAAGUAUAUUGAUUAGUUUUGGAGUACUCGUGGUCG
Summary of the method: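 Pooled colonies went to amplicon sequencing on an Illumina HiSeq 2500 after six replicate transformations. The plates were LB agar with 100 μg/mL carbenicillin, 50 μM IPTG and 0.2% rhamnose, with or without 25 μg/mL kanamycin, incubated overnight at 37°C or 30°C. The E. coli BL21(DE3) library had all eight P1ex-region intron nucleotides randomised, the intron placed in the knt kanamycin-resistance gene on pET-22b(+). DiMSum fitness is the error-weighted combination of replicate fold changes, kanamycin against none, normalised to wild type.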

| Sequence | self-splicing fitness (ln) (30 °C) | self-splicing fitness (ln) (37 °C) |
| --- | --- | --- |
| GGAAAGCAAUAUUACGGGAA | -2.5 ± 0.36 | -2.92 ± 0.26 |
| UAGUAGCAAUAUUACGUAUG | -1.82 ± 0.1 | -0.711 ± 0.12 |
| UGUAAGCAAUAUUACGGUAC | -1.81 ± 0.45 |  |
| AAGUAGCAAUAUUACGACCG | -1.89 ± 0.086 | -1.35 ± 0.12 |
| AAGUAGCAAUAUUACGCUUC |  | -1.41 ± 0.2 |
| AUAGAGCAAUAUUACGCGUC | -1.8 ± 0.39 | -1.82 ± 0.26 |
| GCUUAGCAAUAUUACGAUCU | -1.12 ± 0.12 | 0.155 ± 0.13 |
| CCUGAGCAAUAUUACGUCGC |  | -2.54 ± 0.39 |
| GUAUAGCAAUAUUACGGCUA | -0.758 ± 0.13 | -0.383 ± 0.11 |
| CUGCAGCAAUAUUACGUCGC | -4.61 ± 0.46 | -2.83 ± 0.32 |
| UAUAAGCAAUAUUACGGUGC | -2.46 ± 0.19 | -3.09 ± 0.3 |
| GGGUAGCAAUAUUACGGUGA | -1.74 ± 0.19 | 0.155 ± 0.16 |
| GCUAAGCAAUAUUACGGAAU | -1.68 ± 0.12 | -0.857 ± 0.13 |
| GACCAGCAAUAUUACGUUAG | -3.82 ± 0.24 | -2.79 ± 0.2 |
| UGACAGCAAUAUUACGUUAU | -3.65 ± 0.19 | -3.04 ± 0.21 |
| UCAAAGCAAUAUUACGUUAG | -2.02 ± 0.12 | -1.64 ± 0.12 |
| UAGGAGCAAUAUUACGUUGA | -2.46 ± 0.18 | -1.19 ± 0.17 |
| UGACAGCAAUAUUACGCUAC | -2.24 ± 0.43 | -1.56 ± 0.26 |
| UCUCAGCAAUAUUACGAGCA | -0.507 ± 0.081 | 0.222 ± 0.12 |
| GCCGAGCAAUAUUACGUCAG | -3.33 ± 0.16 | -1.87 ± 0.19 |
| CACCAGCAAUAUUACGUCGC | -3.1 ± 0.12 | -2.28 ± 0.17 |
| GCGCAGCAAUAUUACGAGUU | -0.986 ± 0.066 | -0.241 ± 0.1 |

| Sequence | self-splicing fitness (ln) (30 °C) | self-splicing fitness (ln) (37 °C) |
| --- | --- | --- |
| GCUGAGCAAUAUUACGUCAU | -3.26 ± 0.43 | -0.856 ± 0.3 |
| AGAUAGCAAUAUUACGCACG | -1.13 ± 0.14 | -0.355 ± 0.12 |
| GUUGAGCAAUAUUACGGCUG | -1.41 ± 0.11 | -0.467 ± 0.14 |
| AACCAGCAAUAUUACGUGAU | -1.66 ± 0.04 | -1.11 ± 0.05 |
| GUACAGCAAUAUUACGAUCG | -1.67 ± 0.12 | -0.932 ± 0.16 |
| UGCCAGCAAUAUUACGUUCG | -0.361 ± 0.07 | 0.136 ± 0.089 |
| AUAGAGCAAUAUUACGCGGA | -1.35 ± 0.092 | -1.48 ± 0.11 |
| UCGCAGCAAUAUUACGUCCA | -0.754 ± 0.086 | -0.0511 ± 0.094 |
| UGACAGCAAUAUUACGUUAG | -1.01 ± 0.066 | -0.987 ± 0.089 |
| UAUAAGCAAUAUUACGUUGU | -4.3 ± 0.2 | -2.55 ± 0.17 |
| AACCAGCAAUAUUACGACGG | -2.1 ± 0.089 | -0.974 ± 0.11 |
| CUCUAGCAAUAUUACGGUGA | -3.56 ± 0.21 | -1.8 ± 0.2 |
| CCCGAGCAAUAUUACGGUAC | -4.04 ± 0.22 | -2.85 ± 0.21 |
| CUAUAGCAAUAUUACGCGAC | -1.89 ± 0.18 | 0.00503 ± 0.2 |
| CCGAAGCAAUAUUACGGGCA |  | -2.82 ± 0.25 |
| CUUAAGCAAUAUUACGAUCU | -3.14 ± 0.37 | -1.48 ± 0.31 |
| UAGCAGCAAUAUUACGCGGC | -3.84 ± 0.22 | -1.6 ± 0.21 |
| ACGAAGCAAUAUUACGGUUC | -4.09 ± 0.23 | -0.86 ± 0.15 |
| CCCCAGCAAUAUUACGCUAG | -3.68 ± 0.13 | -2.86 ± 0.17 |
| UAUUAGCAAUAUUACGAUAC |  | -1.13 ± 0.24 |
| UAUGAGCAAUAUUACGCCCG | -2.23 ± 0.3 | 0.00889 ± 0.21 |

Reference: the supplement of paper PMC7877785
